This is an account of results in IntAct's records for PubMed 26829474.

Sequences and labels used below:
B1: Aurora kinase B (Homo sapiens), Q96GD4 (parent)
chain: MAQKENSYPWPYGRQTAPSGLSTLPQRVLRKEPVTPSALVLMSRSNVQPTAAPGQKVMENSSGTPDILTRHFTIDDFEIGRPLGKGKFGNVYLAREKKSHFIVALKVLFKSQIEKEGVEHQLRREIEIQAHLHHPNILRLYNYFYDRRRIYLILEYAPRGELYKELQKSCTFDEQRTATIMEELADALMYCHGKKVIHRDIKPENLLLGLKGELKIADFGWSVHAPSLRRKTMCGTLDYLPPEMIEGRMHNEKVDLWCIGVLCYELLVGNPPFESASHNETYRRIVKVDLKFPASVPMGAQDLISKLLRHNPSERLPLAQVSAHPWVRANSRRVLPPSALQSVA

The variants in this assay derive from B1. Particulars: with 2aaa_human PPP2R1A.
K215Q: the “effect of a mutation on the interaction” value is recorded as “decreasing interaction strength”.
